Measured values taken from paper doi:10.1101/787473, “C9orf72 arginine-rich dipeptide repeat proteins disrupt importin β-mediated nuclear import” (bioRxiv, 2019).
No end group written: not given here.

Legend:
Settings in all cases: both partners purified
[1] = biological target: T1, GST-tagged S. cerevisiae Nup100(1-307) (S. cerevisiae, UniProt Q02629 1-307); test: bead halo assay; GST-fusion yeast FG- and GLFG-domain baits on glutathione beads; AF488-labeled DPRs in binding buffer, without added importin β; rim vs. background ratio against the Nup116 F>A mutant
T1 construct: Nup100, S. cerevisiae, residues 1-307 (GLFG domain fragment); Bait on glutathione beads; also called FG-domains of Nup100; Nup100 fragments; source: E. coli T7 Shuffle, purified (glutathione-sepharose)
T1 sequence (Q02629 1-307): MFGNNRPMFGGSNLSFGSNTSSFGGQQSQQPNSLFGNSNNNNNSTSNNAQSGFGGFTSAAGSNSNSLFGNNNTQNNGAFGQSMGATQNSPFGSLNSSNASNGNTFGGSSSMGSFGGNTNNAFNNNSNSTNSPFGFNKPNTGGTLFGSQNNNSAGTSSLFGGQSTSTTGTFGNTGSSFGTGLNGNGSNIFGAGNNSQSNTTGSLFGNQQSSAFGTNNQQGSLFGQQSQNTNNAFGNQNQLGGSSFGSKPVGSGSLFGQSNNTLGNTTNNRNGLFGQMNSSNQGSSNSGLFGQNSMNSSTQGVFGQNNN

[2] = biological target: T2, GST-tagged S. cerevisiae Nup100(1-610) (S. cerevisiae, UniProt Q02629 1-610); test: as above
T2 construct: Nup100, S. cerevisiae, residues 1-610 (GLFG domain fragment); Bait on glutathione beads; also called FG-domains of Nup100; Nup100 fragments; source: E. coli T7 Shuffle, purified (glutathione-sepharose)
T2 sequence (Q02629 1-610): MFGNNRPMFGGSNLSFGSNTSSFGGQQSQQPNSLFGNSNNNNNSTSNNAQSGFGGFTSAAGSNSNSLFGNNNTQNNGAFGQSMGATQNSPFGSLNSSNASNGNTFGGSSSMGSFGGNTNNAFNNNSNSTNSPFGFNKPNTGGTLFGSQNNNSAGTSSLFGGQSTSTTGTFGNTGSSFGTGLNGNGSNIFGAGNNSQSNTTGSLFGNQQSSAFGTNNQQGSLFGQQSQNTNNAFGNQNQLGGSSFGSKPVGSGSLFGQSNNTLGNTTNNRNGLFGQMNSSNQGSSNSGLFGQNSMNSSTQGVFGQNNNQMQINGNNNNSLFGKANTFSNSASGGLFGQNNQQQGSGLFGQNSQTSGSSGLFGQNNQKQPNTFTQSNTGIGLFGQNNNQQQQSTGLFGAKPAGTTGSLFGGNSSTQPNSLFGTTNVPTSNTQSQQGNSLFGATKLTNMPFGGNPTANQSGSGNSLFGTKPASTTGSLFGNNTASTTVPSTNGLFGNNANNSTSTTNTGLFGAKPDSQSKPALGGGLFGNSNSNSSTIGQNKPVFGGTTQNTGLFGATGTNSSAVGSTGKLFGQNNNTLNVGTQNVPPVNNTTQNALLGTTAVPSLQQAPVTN

[3] = biological target: T3, biotinylated WT importin β-Avitag (pKW1982; pK1099) (human, UniProt Q14974 1-876, biotin on the Avitag (co-expressed biotin ligase, 100 µM D-biotin)); test: bead halo assay; biotinylated bait (importin β-Avitag or BSA) on neutravidin beads; fluorescent prey (AF488-DPR 200 nM, Rango) in binding buffer (20 mM HEPES pH 7.4, 150 mM KOAc, 2 mM Mg(OAc)2, 1 mM DTT, 0.1% Tween-20) with EHBN; room temperature, at least 30 min; confocal rim vs. background ratio
T3 construct: importin β (KPNB1), human, wild type; called full-length in the results of the bead halo assay; Immobilised on neutravidin beads by the biotinylated Avitag; also called biotinylated importin β; full-length importin β-coated beads; source: E. coli BL21DE3 co-transfected with pAC-biotin ligase, purified (Ni-NTA)
T3 sequence (Q14974 whole entry): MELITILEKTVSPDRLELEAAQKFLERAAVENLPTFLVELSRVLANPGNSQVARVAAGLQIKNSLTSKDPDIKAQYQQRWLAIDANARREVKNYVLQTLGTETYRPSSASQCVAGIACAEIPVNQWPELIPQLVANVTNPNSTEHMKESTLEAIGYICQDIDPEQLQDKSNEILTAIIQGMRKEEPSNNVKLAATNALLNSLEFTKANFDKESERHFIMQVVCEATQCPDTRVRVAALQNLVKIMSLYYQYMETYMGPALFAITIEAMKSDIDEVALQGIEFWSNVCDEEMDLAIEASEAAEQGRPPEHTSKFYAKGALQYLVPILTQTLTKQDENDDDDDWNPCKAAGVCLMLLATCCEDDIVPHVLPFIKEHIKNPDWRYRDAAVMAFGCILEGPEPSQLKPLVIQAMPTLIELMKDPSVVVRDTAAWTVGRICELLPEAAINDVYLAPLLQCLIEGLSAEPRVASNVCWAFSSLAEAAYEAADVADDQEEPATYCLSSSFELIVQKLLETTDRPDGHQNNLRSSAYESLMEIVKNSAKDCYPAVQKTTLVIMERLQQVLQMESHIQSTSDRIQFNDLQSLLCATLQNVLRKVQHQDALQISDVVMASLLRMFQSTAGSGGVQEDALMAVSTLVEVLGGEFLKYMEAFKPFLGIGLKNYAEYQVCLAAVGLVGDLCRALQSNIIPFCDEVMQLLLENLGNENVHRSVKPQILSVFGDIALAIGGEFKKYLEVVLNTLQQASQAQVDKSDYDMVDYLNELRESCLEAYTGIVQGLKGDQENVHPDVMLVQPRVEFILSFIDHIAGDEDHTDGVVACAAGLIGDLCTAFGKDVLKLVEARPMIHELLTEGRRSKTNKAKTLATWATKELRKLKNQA

[4] = biological target: T4, full length human importin β (KPNB1), expressed from pET30a-WT Importin β (pKW485) (human, UniProt Q14974 1-876); test: FRET or BRET; displacement of importin β from the Rango FRET sensor in solution: 20 nM Rango + 50 nM importin β in TBS pH 7.4, 0.005% Tween-20, increasing concentrations of DPR 10-mers or ZZ-RanQ69L-GTP; acceptor/donor emission ratio, fit to one-site binding model
T4 construct: importin β (KPNB1), human, wild type, full length; also called unlabeled importin β
T4 sequence (Q14974 whole entry): as above

| Binder | binding result [1] | binding result [2] | halo intensity (rim vs. background) against control beads [3] | binding result [4] |
| --- | --- | --- | --- | --- |
| GRGRGRGRGRGRGRGRGRGRKC(Alexa Fluor 488 C5‑maleimide) (C9orf72 poly-GR dipeptide repeat, ten repeats, with C-terminal K and C; also called AF488-GR10; AF488-labeled R-DPR; source: synthetic peptide (Genscript)) [AF488-labeled GR10] | binds | binds | ~2 fold | – |
| GRGRGRGRGRGRGRGRGRGRKC (C9orf72 poly-GR dipeptide repeat, ten repeats, with C-terminal K (solubility) and C (labelling); Unlabelled peptide; The C-terminal KC was added by the authors; also called poly-GR; R-DPR; source: synthetic peptide (Genscript; 21st Century Biochemicals)) | – | – | – | binds |
| PRPRPRPRPRPRPRPRPRPRKC(Alexa Fluor 488 C5‑maleimide) (C9orf72 poly-PR dipeptide repeat, ten repeats, with C-terminal K and C; also called AF488-PR10; AF488-labeled R-DPR; source: synthetic peptide (Genscript)) [AF488-labeled PR10] | binds | binds | ~2 fold | – |
| PRPRPRPRPRPRPRPRPRPRKC (C9orf72 poly-PR dipeptide repeat, ten repeats, with C-terminal K (solubility) and C (labelling); Unlabelled peptide; The C-terminal KC was added by the authors; also called R-DPR; source: synthetic peptide (Genscript; 21st Century Biochemicals)) | – | – | – | binds |
